In general, Kd refers to a measure of binding affinity in units of concentration. A lower Kd goes with tighter binding.

These results are taken from patent publication US6072028, “EPR-1 proteins, polypeptides, and nucleic acid molecules encoding same” (The Scripps Research Institute, dated 2000).

Experiment [1] has as its target T1, coagulation factor Xa (human, UniProt P00742). Nature of the experiment: saturation binding of ^125 I-Xa to HuT 78* cells, 2.5 mM CaCl2. The procedure:
The procedures for the isolation, characterization, and ^125I-labelling of factor Xa were as described previously by Altieri, et al., *J. Biol. Chem.* 264: 2969 (1989). The interaction of ^125I-Xa with HuT 78* cells was analyzed by incubating increasing concentrations of ^125I-Xa (0.45 to 36 nM) with cell suspension at 1.5 to 2×10^7/ml in the presence of 2.5 mM CaCl_2 for 20 minutes at room temperature. At the end of the incubation, the reaction was terminated by centrifugation of aliquots of the cell suspension at 12,000×g for 2 minutes through a mixture of silicone oil to separate free from cell-associated radioactivity. Nonspecific binding was quantified in the presence of 50-fold molar excess of unlabelled factor Xa added at the start of the incubation reaction, and was subtracted from the total to yield net specific binding. In some studies, aliquots of HuT 78* cells were preincubated with 50 µg/ml of mAb 9D4 for 30 minutes at room temperature before the addition of serial concentrations of ^125I-Xa.
HuT 78* cells reacting with the rabbit polyclonal antiserum B78.9 were isolated to 94.2% purity by fluorescence sorting and cloned by limiting dilution. […] The reaction was terminated by centrifugation through mixture of silicone oils and ^125I-Xa specific binding to HuT 78* cells was calculated in the presence or absence of anti-EPR-1 mAb 9D4.

Experiment [2] addresses T1, coagulation factor Xa. Description: saturation binding of ^125 I-factor Xa (0.45-36 nM) to EPR-1 CHO transfectants, 2.5 mM CaCl2. The procedure: In FIG. A, wild-type (WT) CHO cells (closed squares) or EPR-1 CHO transfectants (closed circles) were incubated with increasing concentrations of ^125I-factor Xa (0.45–36 nM) for 15 minutes at 22° C. In the presence of 2.5 mM CaCl_2. Non-specific binding was assessed in the presence of a 50-fold molar excess of unlabeled factor Xa and was subtracted from the total to calculate net specific binding. Data are the mean±S.E.M. of two independent experiments. ^125I-factor Xa bound at saturation (27 nM) to EPR-1 CHO transfectants corresponded to 729,000±102,000 molecules/cell. […] Thrombin formation in the presence or in the absence of anti-EPR-1 mAb 9D4 (Altieri, et al., Id. (1990)) was assessed by a sensitive clotting assay as described (Altieri, et al., Id. (1989)). Data are expressed as mean±S.E.M. of two independent experiments.
The experimental procedures for the isolation, characterization and ^125I-labeling of factor Xa have been described previously (Altieri, et al., Id. (1989)). […] In the presence of 2.5 mM CaCl_2, before separation of free from cell-associated radioactivity by centrifugation through mixture of silicone oil (Dow Corning, New Bedford, Mass.) at 15,000 xg for 5 minutes at 22° C. Non-specific binding was assessed in the presence of a 50-fold molar excess of unlabeled factor Xa and was subtracted from the total to calculate net specific binding. […]

B1: Effector cell Protease Receptor-1 (EPR-1), on the cell surface (receptor)
chain: MTSRGFQRSCNNPPCSSMTGRRANQIHHLTPDFSLRELLPPKKAGTWADCVSPPCGERDRCEGWADRHTACSSPASTCQVHTQDCDSLNNMRSRHIHCGRLCHANKAVSSSKRDTAFFLPHFSPGKPGNQNSKNEPPKKRERERSSHCYPAAPAAQAEAPLVPLSRQNKSTVETSNLKMLISFPKTLLRGPQEGWWHQGINPGSGAATLGPGSSERPQSIEASCSMARRTFFAVSSNSFFLLLVSFAILFLALSLSSFKNSPRVNSSNCFLTERKAQPDECFLCSSMGSSSGSQPSSSLKQKKHWAKSGSFSVGQWMKPASAIRSGVQRSPPRRASS
On to B1, for which the dissociation constant (Kd) in the experiment with coagulation factor Xa [1] is 10 to 20 nM; in the experiment with coagulation factor Xa [2], 10 to 15 nM.
